Experimental findings from patent US20250027068 are described below.

B1: PRT-19 (protein)
chain: MANQEIRYSEESPSVVTSVWTKGVTPPANFTYGEDVFHAPYIANQGWYDITKTFNGKDDLLCGAATAGNMLHWWFDQNKDEIEAYLKKHPEKQKINFNGEQMFDVKEAIDTKDDQTNSKLFNYFKDKAFPYLSTKHLGVFPDHVLDMFINGYRLNLTNHGPTPVKEGSKDPRGGIFDAVFTRGDQSKLLTSRHDFKEKTLKEISDLIKQELTEGKALGLSHTYANVRINHVINLWGADFNSEGNLKAIYVTDSDSNASIGMKKYFVGVNAAGKVAISAKEIKDDNIGAQVLGLFTLSTGQDIWNQTN
B2: PRT-17 (protein)
chain: MANQEIRYSEVTPYHITSVWTKGVTPPTNFTQGEDVFHAPYKANQGWYDITKTFNGKDDLLCGAATAGNMLHWWFDQNKEEIERYLKEHPEKQKINFNGEQMFDVKEAIDTKGSQTDSKLFNYFKDKAFPYLSTKHLGVFPDHVLDMFINGYRLSLTNHGPTPVKEQSKDPRGGIFDAVFTRGDQSKLLTSRHDFKEKNLKEISDLIKKELTEGKALGLSHTYANVRINHVINLWGADFDSEGNLEAIYVTDSDSNASIGMKKYFVGVNSAGKVAISAKEIKGDNIGAQVLGLFTLSTGQDIWEKTN
B3: PRT-20 (protein)
chain: MANQEIRYSEATPYHITSVWTKGVTPPANFTQGEDVFHAPYVPNQGWYDITKTFNGKDDLLCGAATAGNMLHWWFDQNKDQIERYLKEHPEKQKINFNGEQMFDVKEAIDTKDSQTDSKLFNYFKEKAFPYLSTKHLGVFPDHVLDMFINGYRLSLTNHGPTPVKEQSKDPRGGIFDAVFTRGDQSTLLTSRHDFKEKTLKEISDLIKKELQEGKALGISHTYANVRINHVINLWGADFNSEGNLEAIYVTDSDSNASIGMKKYYVGVNSAGKVAISAKEIEDDNIGAQVLGLFTLSTGKDIWEQTN
B4: PRT-227 (protein)
chain: MEVVEVWPYGQNPNGKTEILSQTEDSESLQRLRDIEDFQAEKKMQNVVYTKWLDGVDVKDHDFRKIVDGNIAYYATPLLNGRGFYDINKDFNRDSDKCAAAVAANMFHYWLDINRDNVDRFLRQNPEKHGIIELPDGQLKLSDFLNTYESDHGYRDKSKLFDFISNNFNGPVWTDKLLDNYINGYAYNYKYGRTIEDPTKNTSKINFFKEVFNEKILTNNHSIRNQNEFSVLLSEALYTGKAIGLSYGPAGLRHSLGHIISVWGADLDADGNVVAIYVTDSDDKKLTIGDERVGLKRYKISTDDENRLRLTAYEETHNTGGQIRGLYTLDTGKYAWADYFDKTEQTGTDQAEQLEHHHHHH
B5: PRT-228 (protein)
chain: MEVVEVWPYGQNPNGKTEILSQTEDSESLQRLRDIEDFQAEKKMQNVVYTKWLDGVDVKDHDFRKIVDGNIAYYATPLLNGRGFYDINKDFNRDSDKCAAAVAANMFHYWLDINRDNVDRFLRQNPEKHGIIELPDGQLKLSDFLNTYESDHGYRDKSKLFDFISNNFNGPVWTDKLLDNYINGYAYNYKYGRTIEDPTKNTSKINFFKEVFNEKILTNNHSIRNQNEFSDLLSEALYTGKAIGLSYGPAGLRHSLGHIISVWGADLDADGNVVAIYVTDSDDKKLTIGDERVGLKRYKISTDDENRLRLTAYEETHNTGGQIRGLWTLDTGKYAWADYFDKTEQTGTDQAEQLEHHHHHH
B6: PRT-229 (protein)
chain: MEVVEVWPYGQNPNGKTEILSQTEDSESLQRLRDIEDFQAEKKKQNVVYTKWLDGVDVKDHDFRKIVDGNIAYYATPLLNGRGFYDINKDFNRDSDKCAAAVAANMFHYWLDINRDNVDRFLRQNPEKHGIIELPDGQLKLSDFLNTYESDHGYRDKSKLFDFISNNFNGPVWTDKLLDNYINGYAYNYKYGRTIEDPTKNTSKINFFKEVFNEKILTNNHSIRNQNEFSVLLSEALYTGKAIGLSYGPAGLRHSLGHIISVWGADLDADGNVVAIYVTDSDDKKLTIGDERVGLKRYKISTDDENRLRLTAYEETHNTGGQIRGLWTLDTGKYAWADYFDKTEQTGTDQAEQLEHHHHHH
B7: PRT-230 (protein)
chain: MEVVEVWPYGQNPNGKTEILSQTEDSESLQRLRDIEDFQAEKKMQNVVYTKWLDGVDVKDHDFRKIVDGNIAYYATPLLNGRGFYDINKDFNRDSDKCAAAVAANMFHYWLDINRDNVDRFLRQNPEKHGIIELPDGQLKLSDFLNTYESDNGYRDKSKLFDFISNNFNGPVWTDKLLDNYINGYAYNYKYGRTIEDPTKNTSKINFFKEVFNEKILTNNHSIRNQNEFSVLLSEALYTGKAIGLSYGPAGLRHSLGHIISVWGADLDADGNVVAIYVTDSDDKKLTIGDERVGLKRYKISTDDENRLRLTAYEETHNTGGQIRGLWTLDTGKYAWADYFDKTEQTGTDQAEQLEHHHHHH
B8: PRT-165 (protein)
chain: MANQEIRYSEVTPYHVTSVWTKGVTPPANFTQGEDVFHAPYVANQGWYDITKTFNGGDDLLCGAATAGNMLHWWFDQNKDQIKRYLEEHPEKQKINFNGEQMFDVKEAIDTKNSQTNSELFNYFKEKAFPYLSTKHLGVFPDHVIDMFINGYRLSLTNHGPTPVKEGSKDPRGGIFDAVFTRGDQSKLLTSRHDFKEKNLKEISDLIKKELTEGKALGLSHTYANVRINHVINLWGADFDSNGNLKAIYVTDSDSNASIGMKKYFVGVNSAGKVAISAKEIKEDNIGAQVLGLFTLSTGQDSWNQTN
B9: PRT-166 (protein)
chain: MANQEIRYSEVTPYHVTSVWTKGVTPPANFTQGEDVFHAPYVANQGWYDITKAFDGGDDLLCGAATAGNMLHWWFDQNKDQIKRYLEEHPEKQKINFNGEQMFDVKEAIDTKNSQTNSELFNYFKEKAFPYLSTKHLGVFPDHVIDMFINGYRLSLTNHGPTPVKEGSKDPRGGIFDAVFTRGDQSKLLTSRHDFKEKNLKEISDLIKKELTEGKALGLSHTYANVRINHVINLWGADFDSNGNLKAIYVTDSDSNASIGMKKYFVGVNSAGKVAISAKEIKEDNIGAQVLGLFTLSTGQDSWNQTN
B10: PRT-21 (protein)
chain: MANQEIRYSEVSPSTVTSVWTKGVTPPTNFTYGEDVLHAPYVANQGWYDITKTFNGKDDLLCGAATAGNMLHWWFDQNKEQIENYLKKHPEKQKINFNGEQMFDVKEAIDTKDSQLDSKLFEYFKEKAFPYLSTKHLGVFPDHVIDMFINGYRLSLTNHGPTPVKRGSKDPRGGIFDAVFTRGDQSKLLTNRHDFKEKTLKEISDLIKQELTEGKALGISHTYANVRINHVINLWGADFDAEGNLEAIYVTDSDSNASIGMKKYFVGVNSNGKVAISAKEIEEDNIGAQVLGLFTLSTGQDIWNQTN
B11: PRT-18 (protein)
chain: MANQEIRYSEETPYHVTSVWTKGVTPPTNFTQGEDVFHAPYIANQGWYDITKTFNGKDDLLCGAATAGNMLHWWFDQNKEEIEKYLEEHPEKQKINFNGEQMFDVKEVIDTKDSQLDSKLFEYFKEKAFPYLSTKHLGVFPDHVIDMFINGYRLNLTNHGPTPVKEGSKDPRGGIFDAVFTRGDQSKLLTERHDFKEKTLKEISQLIKQELTEGKALGLSHTYANVRINHVINLWGADFDSEGNLEAIYVTDSDSNASIGMKKYFVGVNSAGKVAISAKEIEEDNIGAQVLGLFTLSTGQDIWEQTN
B12: PRT-16 (protein)
chain: MANQEIRYSEETPYHITSVWTKGVTPPTDFTQGEDVFHAPYVANQGWYDITKTFNGKDDLLCGAATAGNMLHWWFDQNKDQIERYLKKHPEKQKINFNGEQMFDVKEAIDTKDSQTDSKLFEYFKDKAFPYLSTKHLGVFPDHVLDMFINGYRLNLTNHGPTPVKEGSKDPRGGIFDAVFTRGDQSKLLTSRHDFKEKNLKEISDLIKQELQEGKALGLSHTYANVRINHVINLWGADFDSNGNLKAIYVTDSDSNASIGMKKYYVGVNAAGKVAISAKEIEEDNIGAQVLGLFTLSLGQDIWNQTN
B13: PRT-15 (protein)
chain: MANQEIRYSEVTPYTITSVWTKGVTPPTNFTQGEDVFHAPYVANQGWYDITKTFNGKDDLLCGAATAGNMLHWWFDQNKDEIERYLKEHPEKQKINFNGEQMFDVKEAIDTKDSQTDSKLFEYFKDKAFPYLSTKHLGVFPDHVIDMFINGYRLSLTNHGPTPVKRGSKDPRGGIFDAVFTRGDQSKLLTSRHDFKEKNLNEISDLIKQELTEGKALGLSHTYANVRINHVINLWGADFNSNGNLKAIYVTDSDSNASIGMKKYFVGVNKAGKVAISAKEIKGDNIGAQVLGLFTLSTGQDIWEQTN

The series deals with pooled human IgG.
In turn, B1 came in with an Enzyme Activity Endpoint Assay: Fab′2 of 42 ng/µL, an Enzyme Activity Endpoint Assay: Fc of 108 ng/µL, an Enzyme Activity Endpoint Assay: IgG of 13 ng/µL and an Enzyme Activity Endpoint Assay: scIgG of 13 ng/µL.
B2: the Enzyme Activity Endpoint Assay: Fab′2 was found to be 53 ng/µL, the Enzyme Activity Endpoint Assay: Fc was 116 ng/µL, the Enzyme Activity Endpoint Assay: IgG turned out to be 34 ng/µL and the Enzyme Activity Endpoint Assay: scIgG was found to be 0 ng/µL.
For the protein B3, the Enzyme Activity Endpoint Assay: Fab′2 came out at 48 ng/µL, the Enzyme Activity Endpoint Assay: Fc came to 124 ng/µL, the Enzyme Activity Endpoint Assay: IgG was 15 ng/µL and the Enzyme Activity Endpoint Assay: scIgG turned out to be 13 ng/µL.
Consider B4, for which the Enzyme Activity Endpoint Assay (purified): Fab'2 was determined as 22 ng/µL, the Enzyme Activity Endpoint Assay (purified): Fc worked out at 331 ng/µL, the Enzyme Activity Endpoint Assay (purified): IgG stood at 880 ng/µL and the Enzyme Activity Endpoint Assay (purified): scIgG worked out at 492 ng/µL.
Protein B5 returned an Enzyme Activity Endpoint Assay (purified): Fab'2 of 195 ng/µL, an Enzyme Activity Endpoint Assay (purified): Fc of 583 ng/µL, an Enzyme Activity Endpoint Assay (purified): IgG of 767 ng/µL and an Enzyme Activity Endpoint Assay (purified): scIgG of 557 ng/µL.
B6: the Enzyme Activity Endpoint Assay (purified): Fab'2 is 691 ng/µL, the Enzyme Activity Endpoint Assay (purified): Fc is 243 ng/µL, the Enzyme Activity Endpoint Assay (purified): IgG is 1270 ng/µL and the Enzyme Activity Endpoint Assay (purified): scIgG was 294 ng/µL.
As for B7, the Enzyme Activity Endpoint Assay (purified): Fab'2 was 699 ng/µL, the Enzyme Activity Endpoint Assay (purified): Fc worked out at 454 ng/µL, the Enzyme Activity Endpoint Assay (purified): IgG came to 513 ng/µL and the Enzyme Activity Endpoint Assay (purified): scIgG turned out to be 396 ng/µL.
B8: the Enzyme Activity Endpoint Assay (purified): Fab'2 stood at 783 ng/µL, the Enzyme Activity Endpoint Assay (purified): Fc worked out at 204 ng/µL, the Enzyme Activity Endpoint Assay (purified): IgG worked out at 0 ng/µL and the Enzyme Activity Endpoint Assay (purified): scIgG came to 0 ng/µL.
B9 had an Enzyme Activity Endpoint Assay (purified): Fab'2 of 597 ng/µL, an Enzyme Activity Endpoint Assay (purified): Fc of 161 ng/µL, an Enzyme Activity Endpoint Assay (purified): IgG of 0 ng/µL and an Enzyme Activity Endpoint Assay (purified): scIgG of 0 ng/µL.
B10 yielded an Enzyme Activity Endpoint Assay: Fab′2 of 33 ng/µL, an Enzyme Activity Endpoint Assay: Fc of 111 ng/µL, an Enzyme Activity Endpoint Assay: IgG of 23 ng/µL and an Enzyme Activity Endpoint Assay: scIgG of 28 ng/µL.
B11 had an Enzyme Activity Endpoint Assay: Fab′2 of 44 ng/µL, an Enzyme Activity Endpoint Assay: Fc of 105 ng/µL, an Enzyme Activity Endpoint Assay: IgG of 12 ng/µL and an Enzyme Activity Endpoint Assay: scIgG of 11 ng/µL.
The protein B12 had an Enzyme Activity Endpoint Assay: Fab′2 of 0 ng/µL, an Enzyme Activity Endpoint Assay: Fc of 0 ng/µL, an Enzyme Activity Endpoint Assay: IgG of 151 ng/µL and an Enzyme Activity Endpoint Assay: scIgG of 0 ng/µL.
B13 came in with an Enzyme Activity Endpoint Assay: Fab′2 of 52 ng/µL, an Enzyme Activity Endpoint Assay: Fc of 136 ng/µL, an Enzyme Activity Endpoint Assay: IgG of 18 ng/µL and an Enzyme Activity Endpoint Assay: scIgG of 17 ng/µL.
